We go through 29 molecules from patent US20190015483A1 (CSL BEHRING RECOMBINANT FACILITY, published 2019).

In the test the target is T1, recombinant Factor VIII (CSL627, rVIII-SingleChain) (Homo sapiens (Human), UniProt P00451 20-2351).
T1 construct: also called FVIII
T1 sequence: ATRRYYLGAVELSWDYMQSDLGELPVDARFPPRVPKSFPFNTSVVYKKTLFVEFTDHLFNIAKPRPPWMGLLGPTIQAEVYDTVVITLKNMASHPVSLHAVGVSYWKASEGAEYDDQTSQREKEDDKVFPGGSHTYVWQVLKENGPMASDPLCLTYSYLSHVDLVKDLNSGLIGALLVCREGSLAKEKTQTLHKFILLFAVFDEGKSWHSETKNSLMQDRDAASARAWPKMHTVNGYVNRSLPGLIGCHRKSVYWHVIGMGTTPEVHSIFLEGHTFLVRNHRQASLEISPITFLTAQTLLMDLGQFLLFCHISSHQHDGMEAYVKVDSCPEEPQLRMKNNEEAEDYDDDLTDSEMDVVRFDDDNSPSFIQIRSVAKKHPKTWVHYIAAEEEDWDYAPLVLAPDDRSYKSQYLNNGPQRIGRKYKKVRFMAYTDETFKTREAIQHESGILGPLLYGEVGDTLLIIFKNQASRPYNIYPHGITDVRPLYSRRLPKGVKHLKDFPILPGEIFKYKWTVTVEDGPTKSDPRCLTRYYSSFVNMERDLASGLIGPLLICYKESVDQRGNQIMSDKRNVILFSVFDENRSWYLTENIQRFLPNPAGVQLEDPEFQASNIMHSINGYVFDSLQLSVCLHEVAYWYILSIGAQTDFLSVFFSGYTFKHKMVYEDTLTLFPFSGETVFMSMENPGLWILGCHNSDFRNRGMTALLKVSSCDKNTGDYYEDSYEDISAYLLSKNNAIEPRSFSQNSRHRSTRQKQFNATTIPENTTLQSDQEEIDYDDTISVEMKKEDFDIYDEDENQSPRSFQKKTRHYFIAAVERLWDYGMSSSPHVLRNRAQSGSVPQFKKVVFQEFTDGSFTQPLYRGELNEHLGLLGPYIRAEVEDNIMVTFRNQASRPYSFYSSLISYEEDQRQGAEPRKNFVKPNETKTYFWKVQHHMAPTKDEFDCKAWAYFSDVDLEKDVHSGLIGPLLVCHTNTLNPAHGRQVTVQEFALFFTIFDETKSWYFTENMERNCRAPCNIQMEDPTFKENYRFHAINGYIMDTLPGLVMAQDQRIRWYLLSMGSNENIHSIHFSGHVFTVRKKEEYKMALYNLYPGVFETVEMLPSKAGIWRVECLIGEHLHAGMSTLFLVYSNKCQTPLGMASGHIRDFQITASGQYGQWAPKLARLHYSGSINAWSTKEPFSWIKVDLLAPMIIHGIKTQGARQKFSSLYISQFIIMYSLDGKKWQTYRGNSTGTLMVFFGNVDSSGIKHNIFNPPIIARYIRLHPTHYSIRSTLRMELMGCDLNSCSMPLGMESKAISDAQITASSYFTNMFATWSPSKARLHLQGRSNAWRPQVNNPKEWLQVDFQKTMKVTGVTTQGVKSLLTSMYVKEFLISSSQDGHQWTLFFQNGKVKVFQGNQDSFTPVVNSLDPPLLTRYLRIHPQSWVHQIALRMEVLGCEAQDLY
Briefly: SPR, anti-His capture, FVIII injected, 37 C. On the procedure:
Binding kinetics were investigated by surface plasmon resonance using a Biacore 4000 biosensor at 37° C. Each mutant was captured from cell culture medium to a density of 40-150 RU on a CM-5 sensor chip pre-immobilised with anti-His antibody (14,000 RU). In an initial screening study, FVIII was injected over the captured mutants for 5 minutes at 1 nM and dissociation monitored for 5 minutes.
All sensorgrams were double referenced by subtraction of signals from a reference spot (containing only immobilised anti His antibody) and from a blank injection. Binding kinetics were determined by fitting the double referenced sensorgrams to a 1:1 kinetic model.
(In general: Surface plasmon resonance follows binding to a sensor surface in real time, without labels.)

Residue numbers refer to the chain shown, from its start. Names may count otherwise.

B1: Hu-vWF[764-1270]-8His S766W-L809V (other)
chain: SLWCRPPMVKLVCPADNLRAEGLECTKTCQNYDLECMSMGCVSGCVCPPGMVRHENRCVALERCPCFHQGKEYAPGETVKIGCNTCVCRDRKWNCTDHVCDATCSTIGMAHYLTFDGLKYLFPGECQYVLVQDYCGSNPGTFRILVGNKGCSHPSVKCKKRVTILVEGGEIELFDGEVNVKRPMKDETHFEVVESGRYIILLLGKALSVVWDRHLSISVVLKQTYQEKVCGLCGNFDGIQNNDLTSSNLQVEEDPVDFGNSWKVSSQCADTRKVPLDSSPATCHNNIMKQTMVDSSCRILTSDVFQDCNKLVDPEPYLDVCIYDTCSCESIGDCACFCDTIAAYAHVCAQHGKVVTWRTATLCPQSCEERNLRENGYECEWRYNSCAPACQVTCQHPEPLACPVQCVEGCHAHCPPGKILDELLQTCVDPEDCPVCEVAGRRFASGKKVTLNPSDPEHCQICHCDVVNLTCEACQEPGGLVVPPTDAPVSPTTLYVEDISEPPLHDFHHHHHHHH
For orientation: Kd means a measure of binding affinity in units of concentration. One may read the koff as a measure of how fast the partners let go of each other. By kon is commonly meant the second-order rate constant of association. In the case of B1, the Kd was 0.122 nM, the koff came out at 0.00094 s⁻¹ and the on-rate constant (kon) was 7.7e+06 M⁻¹ s⁻¹.

B2: Hu-vWF[764-1270]-8His S766Y-P769H (other)
chain: B1 chain with W3Y, P6H, V46L
As for B2, the Kd amounted to 0.0809 nM, the koff was 0.000417 s⁻¹ and the kon turned out to be 5.16e+06 M⁻¹ s⁻¹.

B3: Hu-vWF[764-1270]-8His S766W-S806Q (other)
chain: B1 chain with S43Q, V46L
As for B3, the Kd worked out at 0.407 nM, the off-rate constant (koff) amounted to 0.00176 s⁻¹ and the kon is 4.33e+06 M⁻¹ s⁻¹.

B4: Hu-vWF[764-1270]-8His S766Y-P769E (other)
chain: B1 chain with W3Y, P6E, V46L
B4: the Kd was 0.0936 nM, the koff is 0.000414 s⁻¹ and the kon turned out to be 4.42e+06 M⁻¹ s⁻¹.

B5: Hu-vWF[764-1270]-8His S766W-L809W (other)
chain: B1 chain with V46W
With B5, the Kd amounted to 0.648 nM, the koff worked out at 0.00312 s⁻¹ and the kon came to 4.81e+06 M⁻¹ s⁻¹.

B6: Hu-vWF[764-1270]-8His S766W-S806Y (other)
chain: B1 chain with S43Y, V46L
In the case of B6, the binding result is on record as “no binding”.

B7: Hu-vWF[764-1270]-8His S766W-S806M (other)
chain: B1 chain with S43M, V46L
B7: the Kd worked out at 0.425 nM, the koff was 0.000872 s⁻¹ and the association rate constant (kon) is 2.05e+06 M⁻¹ s⁻¹.

B8: Hu-vWF[764-1270]-8His S766W-S806T (other)
chain: B1 chain with S43T, V46L
B8: the Kd was 0.125 nM, the koff is 0.000654 s⁻¹ and the kon turned out to be 5.25e+06 M⁻¹ s⁻¹.

B9: Hu-vWF[764-1270]-8His S766Y-P769G (other)
chain: B1 chain with W3Y, P6G, V46L
As for B9, the dissociation constant (Kd) worked out at 0.212 nM, the off-rate (koff) was found to be 0.000783 s⁻¹ and the on-rate (kon) amounted to 3.7e+06 M⁻¹ s⁻¹.

B10: Hu-vWF[764-1270]-8His S766W-S806N (other)
chain: B1 chain with S43N, V46L
As for B10, the dissociation constant Kd came to 0.152 nM, the koff turned out to be 0.000585 s⁻¹ and the kon is 3.84e+06 M⁻¹ s⁻¹.

B11: Hu-vWF[764-1270]-8His S766W-S806H (other)
chain: B1 chain with S43H, V46L
Regarding B11, the Kd turned out to be 0.093 nM, the koff came to 0.000828 s⁻¹ and the kon came out at 8.9e+06 M⁻¹ s⁻¹.

B12: Hu-vWF[764-1270]-8His S766Y-P769F (other)
chain: B1 chain with W3Y, P6F, V46L
In the case of B12, the Kd was determined as 0.0772 nM, the koff was 0.000427 s⁻¹ and the kon worked out at 5.54e+06 M⁻¹ s⁻¹.

B13: Hu-vWF[764-1270]-8His S766W-S806V (other)
chain: B1 chain with S43V, V46L
On to B13, for which the Kd turned out to be 0.149 nM, the koff stood at 0.000619 s⁻¹ and the kon came to 4.17e+06 M⁻¹ s⁻¹.

B14: Hu-vWF[764-1270]-8His S766W-S806G (other)
chain: B1 chain with S43G, V46L
Turning to B14, the Kd was determined as 0.245 nM, the koff amounted to 0.00134 s⁻¹ and the kon is 5.46e+06 M⁻¹ s⁻¹.

B15: Hu-vWF[764-1270]-8His S766W-S806E (other)
chain: B1 chain with S43E, V46L
Turning to B15, the Kd is 0.217 nM, the dissociation rate constant (koff) came to 0.00129 s⁻¹ and the kon is 5.93e+06 M⁻¹ s⁻¹.

B16: Hu-vWF[764-1270]-8His S766Y-P769K (other)
chain: B1 chain with W3Y, P6K, V46L
In the case of B16, the Kd came to 0.0607 nM, the dissociation rate constant (koff) amounted to 0.000383 s⁻¹ and the kon came out at 6.31e+06 M⁻¹ s⁻¹.

B17: Hu-vWF[764-1270]-8His S766Y-P769L (other)
chain: B1 chain with W3Y, P6L, V46L
For the molecule B17, the Kd was 0.0917 nM, the koff came to 0.00059 s⁻¹ and the kon was determined as 6.44e+06 M⁻¹ s⁻¹.

B18: Hu-vWF[764-1270]-8His S766W-S806A (other)
chain: B1 chain with S43A, V46L
Take B18: the Kd amounted to 0.0778 nM, the off-rate constant (koff) was 0.000376 s⁻¹ and the kon is 4.84e+06 M⁻¹ s⁻¹.

B19: Hu-vWF[764-1270]-8His S766W-S806I (other)
chain: B1 chain with S43I, V46L
B19: the Kd turned out to be 0.283 nM, the koff came to 0.000447 s⁻¹ and the kon stood at 1.58e+06 M⁻¹ s⁻¹.

B20: Hu-vWF[764-1270]-8His S766Y-P769D (other)
chain: B1 chain with W3Y, P6D, V46L
Turning to B20, the Kd was 0.165 nM, the koff is 0.000763 s⁻¹ and the kon came to 4.63e+06 M⁻¹ s⁻¹.

B21: Hu-vWF[764-1270]-8His S766W-S806P (other)
chain: B1 chain with S43P, V46L
In the case of B21, the Kd was determined as 0.133 nM, the koff was determined as 0.000566 s⁻¹ and the kon came to 4.26e+06 M⁻¹ s⁻¹.

B22: Hu-vWF[764-1270]-8His S766W-S806D (other)
chain: B1 chain with S43D, V46L
Take B22: the Kd was 0.164 nM, the koff was determined as 0.000688 s⁻¹ and the kon was determined as 4.2e+06 M⁻¹ s⁻¹.

B23: Hu-vWF[764-1270]-8His S766W-L809Y (other)
chain: B1 chain with V46Y
On to B23, for which the Kd is 0.5 nM, the koff turned out to be 0.00339 s⁻¹ and the kon is 6.77e+06 M⁻¹ s⁻¹.

B24: Hu-vWF[764-1270]-8His S766W-S806W (other)
chain: B1 chain with S43W, V46L
As for B24, the binding result was “no binding”.

B25: Hu-vWF[764-1270]-8His S766Y-P769I (other)
chain: B1 chain with W3Y, P6I, V46L
Consider B25, for which the binding result is on record as “no binding”.

B26: Hu-vWF[764-1270]-8His S766Y-P769A (other)
chain: B1 chain with W3Y, P6A, V46L
B26: the Kd came out at 0.106 nM, the koff came to 0.000519 s⁻¹ and the kon was 4.9e+06 M⁻¹ s⁻¹.

B27: Hu-vWF[764-1270]-8His S766W-S806L (other)
chain: B1 chain with S43L, V46L
Take B27: the binding result is “no binding”.

B28: Hu-vWF[764-1270]-8His S766W-S806R (other)
chain: B1 chain with S43R, V46L
As for B28, the Kd was determined as 1.29 nM, the koff was determined as 0.0107 s⁻¹ and the kon came out at 8.28e+06 M⁻¹ s⁻¹.

B29: Hu-vWF[764-1270]-8His S766W-S806F (other)
chain: B1 chain with S43F, V46L
Consider B29, for which the binding result is “no binding”.
